Data reported in IntAct's records for PubMed 29769718.

B1: Alanine--tRNA ligase, cytoplasmic (Mus musculus), Q8BGQ7 (parent)
chain: MDATLTAREIRERFINFFRRNEHTYVHSSATIPLDDPTLLFANAGMNQFKPIFLNTIDPSHPMAKLSRAANTQKCIRAGGKHNDLDDVGKDVYHHTFFEMLGSWSFGDYFKELACKMALELLTQEFGIPVERLYVTYFGGDEAAGLEPDLECRQIWQNLGLDEARILPGNMKDNFWEMGDTGPCGPCSEIHYDRIGGRDAAHLVNQDDPNVLEIWNLVFIQYNRESDGVLKPLPKKSIDTGMGLERLVSVLQNKMSNYDTDLFMPYFEAIQKGTGARPYTGKVGAEDADGIDMAYRVLADHARTITVALADGGRPDNTGRGYVLRRILRRAVRYSHEKLNASRGFFATLVDVVVQSLGDAFPELKKDPEMVKDIINEEEVQFLKTLSRGRRILDRKIQSLGDCKTIPGDTAWLLYDTYGFPVDLTGLIAEEKGLVVDMNGFEEERRLAQLKSQGKGAGDEDLIMLDIYAIEELRAKGLEATDDSPKYNYQSDSSGSYVFECTVATVLALRREKMFVDEVVTGQECGVVLDKTCFYAEQGGQIYDEGYLVKVDDSSEDKTEFTVKNAQVRGGYVLHIGTIYGNLKVGDQVRLFIDEPRRRPVMSNHTATHILNFALRSVLGEADQKGSLVAPDRLRFDFTAKGAMSTQQIKKAEEIVNGMIEAAKPVYTQDCPLAAAKAIQGLRAVFDETYPDPVRVVSIGVPVSELLDDPCGPAGSLTSVEFCGGTHLRNSSHAGAFVIVTEEAIAKGIRRIVAVTGAEAQKALRKSETLKKSLSAMEAKVKAQTAPNKDVQREIADLGEALATAVIPQWQKDEQRETLKSLKKVMDDLDRASKADVQKRVLEKTKQLIDSNPNQPLVILEMESGASAKALNEALKLFKTHSPQTSAMLFTVDNEAGKITCLCQVPQNAANRGLKASEWVQQVSGLMDGKGGGKDMSAQATGKNVGCLQEALQLATSFAQLRLGDVKN
B2: Ankyrin repeat domain-containing protein 16 (Mus musculus), A2AS55-1 (parent)
chain: MALPGDPRRLCRLVQEGRLRDLQEELAVARGCRGPAGDTLLHCAARHGRQDILAYLVEAWSMDIEATNRDYKRPLHEAASMGHRDCVRYLLGRGAVVDSLKKADWTPLMMACTRKNLDVIQDLVEHGANPLLKNKDGWNSFHIASREGHPVILRYLLTVCPDAWKTESNIRRTPLHTAAMHGCLEAVQVLLERCHYEPDCRDNCGVTPFMDAIQCGHVSIAKLLLEQHKACSSAADSMGAQALHRAAVTGQDEAIRFLVCGLGIDVDVRAKSSQLTALHYAAKEGQTNTVQTLLSLGADINSTDERNRSVLHLACAGQHVACTRLLLQSGLKDSEDLTGTLAQQLTRSVDILQDFDHDVKS

Variants of: B1
Conditions: with Ankrd16, A2AS55-1

| effect of a mutation on the interaction | Variant |
| --- | --- |
| with no effect | A734E |

Variants of: B2
Conditions: with syac_mouse Aars1, Q8BGQ7

| effect of a mutation on the interaction | Variant |
| --- | --- |
| disrupting interaction strength | K102R;K135R;K165R |
